Data published in the DeepSol protein solubility set.

test: soluble on expression in E. coli; label from the status in PepcDB or PDB records

Sequence | soluble on expression in E. coli
MLDTNMKTQLRAYLEKLTKPVELIATLDDSAKSAEIKELLAEIAELSDKVTFKEDNTLPVRKPSFLITNPGSQQGPRFAGSPLGHEFTSLVLALLWTGGHPSKEAQSLLEQIRDIDGDFEFETYYSLSCHNCPDVVQALNLMAVLNPRIKHTAIDGGTFQNEITERNVMGVPAVFVNGKEFGQGRMTLTEIVAKVDTGAEKRAAEALNKRDAYDVLIVGSGPAGAAAAVYSARKGIRTGLMGERFGGQVLDTVDIENYISVPKTEGQKLAGALKAHVSDYDVDVIDSQSASKLVPAATEGGLHQIETASGAVLKARSIIIATGAKWRNMNVPGEDQYRTKGVTYCPHCDGPLFKGKRVAVIGGGNSGVEAAIDLAGIVEHVTLLEFAPEMKADQVLQDKVRSLKNVDIILNAQTTEVKGDGSKVVGLEYRDRVSGDIHSVALAGIFVQIGLLPNTHWLEGALERNRMGEIIIDAKCETSVKGVFAAGDCTTVPYKQIIIATGEGAKASLSAFDYLIRTKIA | soluble
MGSDKIHHHHHHMIDFIYSFQNMEQINSSSWHLPTQYFLNRNNKMEATNTHDIQGLSARKTVEAYLAAFAEGKLDDIVSLLDDNVVWHIDGEPGVSTVGLLQGPGRVRRWLQNFPQNFRPLDFSISDIIAHNDSVLVLGRFRHTVLSTGNAVGSDMIIHFKVSGSKITRYQMFEDSALLSRAFDASDEWQLQQVRINGTLYRYRDIGEGPTLIFAHGLFANHEIFSAQFQILSKSYRCIVLDMPGHGLSEYDPAGWKLDDLSRDLALMIQELSLGKVTFIGQSQGGMVAIRLAAHYPQLVSGLVLIGTSARAEFPERLQNWHRQRDILLTGSEHAREDLFKKIQSHINNEAWLQNNQGEAARERRIMLSHNRTGLALALDAAVFERGDITELLADISAPTLIICGEQDTATPVELSQEIATLIADASILILAKTGHHPPTEAAQAVTAAIAEFLKLECSNHH | not soluble
MSLGNKSEAYEQYIQQIKEENGINNFFDRYPYLLKQINREVRLIEESYSLLFDRFLKDLSELRSCFNITEPLSNVEFSLGDSHSQKQTVVKIEFKGKSIYYKPKSYDSYNILLELISLLKSNNIPSFSLPESLIKADYCWQLGVDYINSNNDEVKRIYFKYGVLAAFSEIFSITDLHMENVIVSGGDLYLIDVETFFQRKLNVQTNNFEGITVDTYQRIYETSLSNGLFPVQFEKNSAPNISGISGKGGKRKKGKYELINKNRGDMKLVKTDYFQEDSYNIPTLNEKMVEPLDYANEVIAGFRECYTFLMTQRAKVKKILYGFPKLRTRAIFRNTSDYGKFLQASTNPKYLFSEKKRENLFSILYESKHIEQFIVDSEIKDLMNGDIPYFSMDPNGNVYNSLGTVIGNLGKTTSLFDNIATLNDERMKFTCELIGIVLKKPIKHWERKDGKSYYFPSISSKQSFNEEILRQREGHHHHHH | not soluble
MTMGKRTQAPALEVRLLREGIIESKHIVQAVVCDERGRVLSVAGNSETATFVRSALKPFQALAVTTTGTLERYDLSDRDLAIITSSHKGTIEQVRQAFNILWRADLDPSVLQCPIPQGKRSPLEYNCSGKHAGMLAICQQRHWPLNNYMDRKHPVQQLVLAKVAELLRMPAAEFISAHDDCGVPTYLLQLGQISSLYALLAASNNLDMERIVRAMTHHPSMVAGEREFDTELMRLTPGELVSKSGAEGVQCIGRLGEGMGLTIKVMDGAKRAKYAVAIHLLQQMGWITPSVAESLAEKFMNPGKYTRLEVVGELSLLLEHHHHHH | not soluble
MGSDKIHHHHHHMSDEWIKIFESDFYVREMIKVWDEGEKWANWIDEVVSKYKLEKKVLDIPCGIGRVSYFLANRGYKVTGIDISERMISMARSNIQNGKFIVGDMRKIKEIIGNEKYDLVINIYNSLGYYSEEDDLKILESLRDSTRKIVVINLDNRDYIIYNRPNEYYTYIPPYLVYSKVEFEQETSRLKIYRKYYLNDKEVGEMIYEQRLYSIHEILALLKKAGLQPIEVLSGYSWKKFSIMDPEMTIIATPA | not soluble
MSLLRKDATEERLTGRYFTPKDLASYIIDWVIQDNNINKILEPSCGNGVFLECLGERRLEDGRNITAIEIDEDVSFEASMQIDNSLRFNNCYDYQRALRNDGDIVNNGIVIINDDFYKVYEQELQGQRFQAIVGNPPYIRYQYLSEQQREEQSKILIRNNMRPNKLINAWVSFVVACAEILDGNGKMGLVIPAELLQVAYAEDLRRFIMRTFQRITIVTFRELVFPNVQQEVVLLLVEKEILHTREGHHHHHH | soluble
MKKMNHVLQVLMLSASLVASPFTYANEEKGLEIAQERKARDEGWGDSIATMEMILKNAQGESSTRLMRLKSLEVEGDGDKGLTIFDQPRDVTGTAFLNHSHTIGADDQWLYLPALKRVKRISSRNKSGPFMGSEFAYEDLSSFEIEKYRFNHLKDEKFNGQDVFVLEQIPTDKNSGYTKQVVWLDKAHYRPLKVEFYDRKGALLKTLTFANYKQYLDKYWRAHTMAMTNHQTGKSTELNTSDLRFQTGLEENDFNKNVLKRVK | not soluble
MNAIIFCLLFTTVTATYEVFGKGIEHRNEHLIINQLDIIPVESTPTPNRASRVQKRLCGRRLILFMLATCGECDTDSSEDLSHICCIKQCDVQDIIRVCCPNSFRK | not soluble
MVLDQGDVISRINEGAISSSLEDLAKETGKEVRFVTIHRLDYGETPESFAQALFEKWFPSKEAQANQILLVLDTVTNGTAIITGDEVKPLLTDTIANSVAEETLAAPLRDGNKYNQAFLDASDRLVAVLSGQPDPGPPQIVDKLEHHHHHH | soluble
MGSDKIHHHHHHVDQKEISDIVQRILQDGPQTQEDGYCLVRAQARREWSLRLNNGRFERVSTARERGIGVQAFTPEGASGFASVDALTVEAGREAMKRAMSLAEHNAKLGAELNRAIYDASPLKTEGPNPAKLEFEHFSLAELQEQVMFLHKRLLNRSPEHSWQTSYRQVEDSWCIGRTDGTLVSYVVPRAVLMHQGTVRVQGRAKSALVQRSGVDAGLLLLEKEDSDLERRGVERGEFAKQVCVAPHLPSGHYPLIIDYGLAKGLAHEAFGHAVESDHMQESVLGEAGKLRKGLQVARPGVHIIDGPLEGDWAYQPFSANGLVRETVEIVKDGVLQAGLGDIFSAHKAGMPVSGAGRAESYGHIPLPRMTNIRLLVDHVLPLAPASDLMAEISQVRQTLRAAGELHDERKHLLLLGYRGGQVNPKTGDFVFQCDGIIDVADPNLTIYQPSIFSGKILSALQAIRVGLGGGCYDAIGTCGKGGQSVPSSGGSHRYLLLDRDEYVTLGGEQ | not soluble
MPMTGRCREPNCHAVVVRPLHYCTKHADKEAAYQASRERWTNRTSNSKRYKDYDRMRSKDPFKAEQHKFYQGKQWRSIREIALRRDNYLCQYCLNHKRVRTGNIGDHIVPYEVEPENRTNLANIAIACSKCHTAKTKWEQLYYGTGMGNKLKNAIPIRNVKDLPDFQKNIRLEHHHHHH | not soluble
MVKVIFFDLDDTLVDTSKLAEIARKNAIENMIRHGLPVDFETAYSELIELIKEYGSNFPYHFDYLLRRLDLPYNPKWISAGVIAYHNTKFAYLREVPGARKVLIRLKELGYELGIITDGNPVKQWEKILRLELDDFFEHVIISDFEGVKKPHPKIFKKALKAFNVKPEEALMVGDRLYSDIYGAKRVGMKTVWFRYGKHSERELEYRKYADYEIDNLESLLEVLARESSSNKKVHPPRQQI | soluble
MGSDKIHHHHHHMDDLLLELARQYRNRYYGKYRGFVTDNDDPEQRGRLRLMVPSVLGETPTGWALPSLPFGGLADQGLFMVPEVDAQVWVEFEAGNVNLPIWTGTFWQASGDPPAEAAKSPPTTRVLKTPSGHILQFDDESGAEKFRLAHPAGTEMTVDEKGTVIVADAKGNTLTLDADAGKVVVEDSNGNTITMSSSGTTIEDANGNKVEMAASGVTVKGQQVVVDAQTVMLAGQGGEPIIKGQSFLTLFATHVHPSAMGPTGPPIPQGEMSTLSMKVMTS | not soluble
MTVNKITYQNLQEEVYKLTLESGLNVYLIPKPSFKETVGVLTANFGSLHTKYTRNGCVEHYPAGIAHFLEHKLFELDKGQDAATQFTKYGAESNAFTTFDKTSFYFSTISHITNCLDILLDFVLTTNFTEESITKEKDIIKQEIEMYQDDPEYRLYQGVLSNLYPNSPLAFDIAGDYQSISQITLTDLQENHKDFYQLSNMNLVLVGQFSPQEIITYLQKNSHFTSYSQNIDRDSISLEPVIKNNSCHMTVTKPKLAIGYRKSNHMIHGSYLKEKIGLQLFFAMLLGWTSTINQDWYESGQIDDSFDIEIEVHPDFECVIISLDTTEPIAFSTQLRLLLKNALQSSDLTESHLKNVKRELYGDFLRSLDSIENLAMQFVTYLYDGKTMYLDLPSIVEELDLEDVITIGKDFLDNADTSDFVIFPKSS | not soluble
MGSSHHHHHHSSGRENLYFQGHMSHRDTLFSAPIARLGDWTFDERVAEVFPDMIQRSVPGYSNIISMIGMLAERFVQPGTQVYDLGCSLGAATLSVRRNIHHDNCKIIAIDNSPAMIERCRRHIDAYKAPTPVDVIEGDIRDIAIENASMVVLNFTLQFLEPSERQALLDKIYQGLNPGGALVLSEKFSFEDAKVGELLFNMHHDFKRANGYSELEISQKRSMLENVMLTDSVETHKARLHNAGFEHSELWFQCFNFGSLVALKAEDAA | soluble
MGSDKIHHHHHHMSRAPDTWILTADCPSMLGTVDVVTRYLFEQRCYVTEHHSFDDRQSGRFFIRVEFRQPDDFDEAGFRAGLAERSEAFGMAFELTAPNHRPKVVIMVSKADHCLNDLLYRQRIGQLGMDVVAVVSNHPDLEPLAHWHKIPYYHFALDPKDKPGQERKVLQVIEETGAELVILARYMQVLSPELCRRLDGWAINIHHSLLPGFKGAKPYHQAYNKGVKMVGATAHYINNDLDEGPIIAQGVEVVDHSHYPEDLIAKGRDIECLTLARAVGYHIERRVFLNANRTVVL | not soluble
MHHHHHHGSTSLYKKAGSETLYIQGMAEFPASLLILNGKSTDNLPLREAIMLLREEGMTIHVRVTWEKGDAARYVEEARKFGVATVIAGGGDGTINEVSTALIQCEGDDIPALGILPLGTANDFATSVGIPEALDKALKLAIAGDAIAIDMAQVNKQTCFINMATGGFGTRITTETPEKLKAALGSVSYIIHGLMRMDTLQPDRCEIRGENFHWQGDALVIGIGNGRQAGGGQQLCPNALINDGLLQLRIFTGDEILPALVSTLKSDEDNPNIIEGASSWFDIQAPHDITFNLDGEPLSGQNFHIEILPAALRCRLPPDCPLLRSTHHHHHH | soluble
MPPPNKRQKHARICGFMGTLARKKKEIEQQEALMKLHNLPLTYTEDQYKIVKEESTIYKNRFETAAAKNVELLKATDELKKELEFLKRQPGNQFKVDKKLKSEIDSAEEESKFYKNCFETTAAENVELLKVTDQLKKELEFLKAQQGNQFKVDMKIKSEMESATQSNLILLREKEMWKDRFNDVLSEKLALSARIRNVIGDRSESVEVPNDSNRDIWELREDLEMERSARRKAEEELKILKMTSSRGSMHISRDSTNQTPNEILLSMAIRLDSTSSN | not soluble
MGSDKIHHHHHHMQQEIIDFRQSQSLAGAELSRASYQRFDFGRHVHEDLHLGAVIRGAQAFNHKGTGHTLCRGDLSTLSPDECHDGIAATDTGYEVLVLSLPQWHLDRFAAELGISFGGFCQPKRKDMALYQAFVSLHRLLYQAENPLLEETALLDFFQRLLGQCSKSEKVTNTGTVKAGLSREIRLAKSLMADTPEPVTLELLGDATGLGRYRLLRHFRAQTGLSPHQWQLRLRLERAKKSLMQNDGNSLTDIAHQHGFSDLSHFTRHFRMAFLTSPSAYRRAIRN | not soluble
MLIRSAKPEDAEFIGSIRVAAWQAAYRGFMPDTYLASLDPGANLDELRAALRAENPPFTLRIAETEGQPIAFSILGKPRYNADQSIVELWALNVHPTHWRKGAGQQLVRQVLLDAKEQKFVSVELWCIQGNLAAQRLYEICGFVPNSQVRTTSSLTGYPLHELAYTYAL | not soluble
